Source: paper PMC8115157

Columns and labels:
Conditions in all cases: remark: other sources report otherwise
[1] = biological target: T1, full-length human calcium-sensing receptor (CaSR) (human), P41180; assay: cryo-EM structure; single-particle cryo-EM of CaSR in DDM/CHS, 20 mM HEPES pH 7.5, 150 mM NaCl, with 10 mM L-Trp and 10 mM CaCl2 (active state, CaSR^Acc); 3.5 Å
T1 chain: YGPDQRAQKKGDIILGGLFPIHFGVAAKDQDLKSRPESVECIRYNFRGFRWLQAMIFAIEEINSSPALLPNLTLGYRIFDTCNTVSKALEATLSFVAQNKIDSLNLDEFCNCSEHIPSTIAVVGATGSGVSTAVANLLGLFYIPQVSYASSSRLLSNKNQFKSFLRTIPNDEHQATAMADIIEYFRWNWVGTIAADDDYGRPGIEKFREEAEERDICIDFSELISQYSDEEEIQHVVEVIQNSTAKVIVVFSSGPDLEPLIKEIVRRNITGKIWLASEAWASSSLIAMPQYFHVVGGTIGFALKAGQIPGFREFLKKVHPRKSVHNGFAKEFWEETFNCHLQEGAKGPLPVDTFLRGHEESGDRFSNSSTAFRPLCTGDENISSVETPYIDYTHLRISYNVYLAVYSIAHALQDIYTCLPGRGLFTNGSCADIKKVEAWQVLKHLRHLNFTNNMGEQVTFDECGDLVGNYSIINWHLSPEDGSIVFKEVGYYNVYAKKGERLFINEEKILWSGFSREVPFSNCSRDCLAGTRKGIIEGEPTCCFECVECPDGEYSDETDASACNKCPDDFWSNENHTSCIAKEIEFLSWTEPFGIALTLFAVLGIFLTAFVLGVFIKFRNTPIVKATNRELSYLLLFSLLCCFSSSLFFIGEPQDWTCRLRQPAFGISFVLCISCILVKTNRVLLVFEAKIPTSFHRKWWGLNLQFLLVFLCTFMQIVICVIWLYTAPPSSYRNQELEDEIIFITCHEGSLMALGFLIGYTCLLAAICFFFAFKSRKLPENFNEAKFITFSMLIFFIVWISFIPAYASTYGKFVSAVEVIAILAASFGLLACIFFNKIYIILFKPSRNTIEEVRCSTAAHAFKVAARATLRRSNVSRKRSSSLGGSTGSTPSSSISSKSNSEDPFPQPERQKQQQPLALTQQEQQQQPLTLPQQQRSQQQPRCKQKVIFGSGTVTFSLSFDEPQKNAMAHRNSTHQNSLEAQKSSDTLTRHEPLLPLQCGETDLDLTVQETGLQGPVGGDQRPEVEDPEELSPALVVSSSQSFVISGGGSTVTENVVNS

[2] = biological target: T1, full-length human calcium-sensing …; assay: cryo-EM structure; single-particle cryo-EM of CaSR in DDM/CHS, 20 mM HEPES pH 7.5, 150 mM NaCl, 20 mM CaCl2 (three classes: closed-closed CaSR^Ca 3.8 Å, open-closed 5.6 Å, open-open 7.3 Å)
[3] = biological target: T1, full-length human calcium-sensing …; assay: cryo-EM structure; single-particle cryo-EM of Ca^2+-free CaSR in DDM/CHS, 20 mM HEPES pH 7.5, 150 mM NaCl, 5 mM EGTA, with 10 mM L-Trp (CaSR^Trp); 4.4 Å
[4] = biological target: T1, full-length human calcium-sensing …; assay: cryo-EM structure; single-particle cryo-EM of CaSR in DDM/CHS, 20 mM HEPES pH 7.5, 150 mM NaCl, 5 mM EDTA (inactive state; three classes Icc 4.5 Å, Ioc 5.7 Å, Ioo 6.8 Å)

Measured: stoichiometry N

B1: full-length human calcium-sensing receptor (CaSR), P41180 20-1078 (receptor)
chain: T1 chain
modifications: here or on the partner: N-linked glycans (N-acetylglucosamine built) at N261, N287, N446, N468, N488 and N541; N-linked glycans (N-acetylglucosamine built) at N261, N287, N446, N468, N488 and N541
2: [1] | [2] | [3] | [4]
